According to patent US20090130104A1 (University of Pennsylvania, published 2009):

Target: low molecular weight single-chain urokinase plasminogen activator (lmw-scuPA), non-targeted (human, UniProt P00749 164-431)
Experiment: ELISA on plates coated with soluble mouse PECAM
Procedure: The size and homogeneity of purified scFv/uPA-T was analyzed using 12% SDS-PAGE with or without addition of thrombin (150 nM). Conversion to its two-chain derivative was determined in the presence of 50 mM dithiothreitol (DTT). cDNA encoding the extracellular domain of mouse PECAM (amino acids Glu¹⁸-Lys⁵⁹⁰) was obtained by the reverse transcription polymerized chain reaction (RT-PCR) using mouse lung tissue total RNA. A FLAG affinity tag was fused to the N-terminus and subcloned into the BglII and NotI sites in the pMT/Bip vector. Stable cell lines were generated. Soluble mouse PECAM was purified from secreted supernatant using M2 anti-FLAG affinity chromatography. Specific binding of scFv/uPA-T to soluble PECAM was measured by ELISA. Each well within a 96-well plate was coated with 5 μg/ml soluble mouse PECAM protein overnight, the unbound sites were blocked with PBS containing 5% bovine serum albumin (BSA) at 37° C. for 1 h and various dilutions of scFv/uPA-T or WT lmw-scuPA were added for 1 hour. Unbound protein was removed by washing with PBS and 1 μg/ml anti-uPA monoclonal antibody in PBS containing 1% BSA was added. The wells were washed, horseradish peroxidase conjugated anti-mouse IgG was added, the wells washed again, TMB substrate was added and the optical density at 450 nm (OD450) was measured. […]

binding result: no binding
B1: soluble mouse PECAM, extracellular domain (Glu18-Lys590) with N-terminal FLAG tag (receptor, UniProt Q08481 18-590, looked up, not shown: small tags and cut ends)
chain: EENSFTINSIHMESLPSWEVMNGQQLTLECLVDISTTSKSRSQHRVLFYKDDAMVYNVTSREHTESYVIPQARVFHSGKYKCTVMLNNKEKTTIEYEVKVHGVSKPKVTLDKKEVTEGGVVTVNCSLQEEKPPIFFKIEKLEVGTKFVKRRIDKTSNENFVLMEFPIEAQDHVLVFRCQAGILSGFKLQESEPIRSEYVTVQESFSTPKFEIKPPGMIIEGDQLHIRCIVQVTHLVQEFTEIIIQKDKAIVATSKQSSEAVYSVMAMVEYSGHYTCKVESNRISKASSIMVNITELFPKPKLEFSSSRLDQGELLDLSCSVSGTPVANFTIQKEETVLSQYQNFSKIAEESDSGEYSCTAGIGKVVKRSGLVPIQVCEMLSKPSIFHDAKSEIIKGHAIGISCQSENGTAPITYHLMKAKSDFQTLEVTSNDPATFTDKPTRDMEYQCRADNCHSHPAVFSEILRVRVIAPVDEVVISILSSNEVQSGSEMVLRCSVKEGTSPITFQFYKEKEDRPFHQAVVNDTQAFWHNKQASKKQEGQYYCTASNRASSMRTSPRSSTLAVRVFLAPWKK
notes: range 18-590; Secreted from Drosophila cells (pMT/Bip vector), purified on M2 anti-FLAG; coated on 96-well plates at 5 ug/ml; also called immobilized extracellular domain of mouse PECAM; immobilized mouse PECAM
